Results from the nanobody polyreactivity screen of Harvey et al. (2022).

Test: yeast display, Sf9 membrane polyspecificity reagent, FACS + sequencing; frameworks hold sequencing errors
In short: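 Using colony PCR, genes from sorted yeast display clones were amplified, then sequenced on MiSeq at 2 × 250 and filtered by CDR length. The clones had been stained with 10% biotinylated, detergent-solubilized Sf9 membrane reagent for 1 hour at 4 °C and sorted by FACS into low and high (top ~1%) gates on anti-HA and streptavidin fluorescence. Polyreactivity labels come from the gate of origin.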

Sequence	polyreactivity (PSR sort gate)
QVQLVESGGRLVQAGGSLRLSCAASGLTFGRYAMGWYSQAPGKERELVASISQRGGSSYYADSVKGRFTISRDNAKNTVFLQMNSLKPEDTAVYYCNARVRDIYRYSMDSWGQGTQVTVSS	low polyreactivity
QVQLVESGGGLVQAGGSLRLSCAASGYTFLDYAMAWYRQAPGKERELVAAINSGGSTYYADSVKGRFTISRDNAKNTVYLQMNSLKPEDTAVYYCAREDYVSYRLLYYLFDYWGQGTQVTVSS	low polyreactivity
QVQLVESGGGLLQAGGSLRLSCASSGITFGDNVMGWYRQAPGKERELVAAISRIGDDTYYADSVKGRFTISRDNAKNTVFFQMNSLKPEDTAVYYCATDFTQRDYYNYGYWGQRTQVTVSS	low polyreactivity
QVQLVESGGGLVQSGGSLRLSCAASGRIFDWNVMGSYRQAPGKERELVSVINDSTGTTYYADSVKGRFTISRDNAKNTVYLQMNSLKPEDTAVYYCAAYVWISSEEFYYWGQGTQVTVSS	low polyreactivity
QVQLVESGGGLLQAGGSLRLSCAASGFTFRPYAMGLYRQAPGKERELVAAIDYSGGSTSYADSVKGRFTISRDNAKNTVYLQLNSLKPEDTAVFSCATDYPLSWSPLYDYDYWGQGTQVTVSS	low polyreactivity
QVQLVESGGGLVQAGGSLRLSCAASGIIFAGNAMGWYRQAPGKERELVAAISSGTTTNYADSVKGRFTISRDNAKNTVYLQMNRLKPEDTAVYYCAADDFPYKSDYWGQGTHVTVSS	low polyreactivity
QVQLVESGGGLVQAGGSLRLSCAASGSTFPKYGMGWYRQAPGKEREFVARINWNGGGTYYADSVKGRFTISRDYAKNTVYLQMNSLKPEDTAVYYCNARKRGARFILGYDYWGQGTQVTVSS	low polyreactivity
KVQLVESGGGLVQAGGSLRLSCAASGRIFYVNTMGWYRQAPGKERELVATITWGGDSTYYADSVKGRFTISRDNAKNTVYLQMNSLKPEDTAVYYCAADHHDIRLNTRRYDYWGQGTQVTVSS	low polyreactivity
QVQLVESVGGLVQAGGSLRLSCAASGSTFRRYAMGWSRQAPGKERELVASISRSGGSTYYADSVKGRFTISRDNAKNTVYLQMNSLKPEDTAVYYCAKKPYKSAYDYSSAYDYWGQGTQVTVSS	high polyreactivity
QVQLVESGGGLVQAGGSLRLSCAASGSTIAYYTMGWYRQAPGKERELVAAISASGGSTYYADSVKGRFTISRDNAKNTFYIQMNSLKPEDTAVYYCNAESYLTGWWVDYWGQGTQVTVSS	low polyreactivity
QVQLVESGGGLVQAGGSIPLTCAASGRTLWGYAMGWYSQAPGKEREMVAAITSGGSTYYADSVKGRFTISRDNAKYYVYLQMNSLKPEDTAVDYCNAVTSIQTSYPSNWGMMDYWGQGSQVTVSS	low polyreactivity
QVQLVESGGGLVQAGGSLRLSCAASGSTSSVYAMGWYRQAPGKEREFVASITRRTGITFYADSVKGRFTISRDNAKNTVYLQMNSLKPEDTAVYYCATRGGYPKGYGYLAFNYWGQGTQVTVSS	high polyreactivity
QVQLVESGGGLVQAGGSLRLSCAASGRIFVSNAMGWYRQAPGKERELVAAISSSGGSTYYADSVKGRFTISRDNAKNTVYLQMNSLKPEDTAVYYCNVLGQRYYPSGRNYWGQGTQVTVSS	high polyreactivity
QVQLVESGGGLVQAGGSLRLSCAASGRIFKRNTLGWYRQAPGKERELVAAITNSGITYYADSVKGRFTISRDNAKNTVYLQMNSLKPEDTAVYYCAARVIYYYGSGPYDYWGQGTQVTVSS	low polyreactivity
QVQLVESGGGLVQAGGSLRLSCAASGRIFIGNAMGWYRQAPGKERELVAAITQSGGSTYYADSVKGRFTISRDNAKNTVYLQMNSLKPEDTAVYYCSKALRRPRSGGNPGQAYGYWGQGTQVTVSS	low polyreactivity
QVQLVESGGGLVQAGGSLRLSCAASGSIFEGNGMGWYRQAPGQERELVAAITFRSGSTYYADSVKGRFTISRDNAKNTVYLQMNSLKPEDTAVYYCAADEYYQGYAYDYWGQGTPVTVSS	low polyreactivity

Sequence	polyreactivity (PSR sort gate)
QVQLVESGGGLVQAGGSLRLSCAASGRTFYTYAMGWYRQAPGKERELVAAITYRGGNTYYADSVKGRFTISRDNAKNTVYLEMNSLKPEDTAVYYCAATYKRRSGQSFDYWGQGTQVTVSS	high polyreactivity
QVQLVESGGGLVQAGGSLRLSCAASGIIFHWYAMGWYRQAPGKERELVAAITQSGGSTSYADSVKGRFTISRDNAKNTVYLQMNSLKPEDTAVYYCAKDYAYTLWENYYAFNYWGQGTQVTVSS	low polyreactivity
QVQLVESGGGLVQAGGSLRLSGAASGSTFDIYAMGWYRQPPGKESELVAAITVSGGSTYYADSVKGSFTISRDNAKNTVYLQMNSLKPEDTAVYYCNADWSGWQGWYNYWGQGTQVTVSS	low polyreactivity
QVQLVESAGGLVQAGGSLRLSCAASGPTFAYNDMGWSRQAPGKERELVAAISWSDGTTYYADSVKGRFTISRDNAKNTVYLQMNSLKPEVTAVYYCAGESYPSEVASYVSEYDYWGQGTQVTVSS	low polyreactivity
QVQLVESGGGLVQAGGSLRLSCAASGSIVRYYAMGWYSQAPGKERELVAAISYRGGTTYYADSVKGRFTISRDNAKNTVYLQMNSLKPEDTAVYYCAAGYKAAGWTQYGYWGQGTPVTVSS	high polyreactivity
QVQLVESGGGLVQAGGSLRLSCAASGRIFTGYAMGWNRQAPGKERELVAAISRGGSTNYADSVKGRFTISRDNAKNSVYLQMNSLKPEDTAVYYCAAGVHWDRGDYWGQGTQVTVSS	low polyreactivity
QVQLVESGGGLVQAGGSLRLSCAASGRTFRTNAMAWYRQAPGKERELVAAITSDGTYYADSVKGRFTISRDNAKNTVYLQMNSLKPEDTAVYYWNVDDRENRDDYWGQGTQVTVSS	low polyreactivity
QVQLVESGGGLVQAVGSLRLSCAASGSTFFWYAMGWYRQAPGKERELVAAISKTGGSTYYADSVKGRFTISRDNAKNTVYLQMNSLKPEDTAVYYCAKPLSSFSRTSSVWPWYDYWGQGTQVTVSS	low polyreactivity
QVQLVESGGGLVQAGGSLRLSCAASGSIFVQNAMGWYRQAPGKETELVAVINSGDSTNYADSVKGRFTISRDNAKNTVYLQMNSLKPEDTEVYYCAVDDVSYYYLRAYNYELSWYGSGLDYWGQGTQVTVSS	low polyreactivity
QVQLVESGGGLVQAGGSLRLSCAASGPIFRGYAMGWYRQAPGKERELVARITSGGRTYYADSVKGRFTISRDNAKNTVYLQMNSLKPEDTAVYYCATVGRGYDERHNYWGQGTQVTVSS	high polyreactivity
QVQLVESGGGLVQAGGSLRLSCAASGFTFWYYAMGWYRQAPGKERELVASISRTGGTTYYADSVKGRFTISRDNAKNTVYLQMNSLKPEDTAVYYCNARPKVYYREYDYWGQGTQVTVSS	high polyreactivity
QVQLVESGGGLVQAGGSLRLSCAASGSTFYVNAMGWYRQTPGKEREFVAAITWNSGSTYYADSVKGRFTISRDNEKNTVYLQMNSLKPEDTAVYYCAAVLSVRVYGYDYWGQGTQVTVSS	low polyreactivity
QDQLVESGGGLVQAGGSLRISCAASGRIFYYYGMGWYRQAPGKEWELVAAITSDGDTNYADSVKGRLTISRDNAKNTVYLQMNSLKPADTAVYYCAGKWDWGYWRGFQYGFNYWGQGTQVTVSS	low polyreactivity
QVQLVESGGGLVQAGGSLRLSCAASGYIFRGYVMGWYRQAPGKERELVAGISRSGSSTYYADSVKGRFTISRDNAKNTVYLQMNSLKPEDTAVYYCAAVRSGIEYGYWGQGTQVTVSS	high polyreactivity
QVQLVESGGGLVQAGGSLRLRWAASGRIFLNYAMGLYRQEPGKEREVVAAISRTGGRKYYADSVKGRFTISRDTEKNTVYLQMYSLKPEDTAVYYCDAYYSGFLTYGLDYWGQGTQVTLSS	high polyreactivity
